Legend:
NF-κB = experiment: Electrophoresis mobility shift assay (EMSA) with BMDM nuclear extracts; format: cell-based, mouse; conditions: SAA-stimulated BMDM, after 30 min
Description: To investigate the mechanism for SAA-induced G-CSF production, the level of G-CSF transcript in SAA-stimulated BMDM was determined. […] The induction of G-CSF transcript peaked at 4 h after SAA stimulation. Since transcription of the G-CSF gene involves NF-κB binding to the RelA/p65 consensus element in the CK-1 site of the G-CSF promoter (Dunn et al., 1994; Hareng and Hartung, 2002), the role of NF-κB in SAA-stimulated G-CSF expression was determined. […] Using oligonucleotide probe based on the sequence of the CK-1 site (−161 to −152 in the G-CSF promoter), a protein •DNA complex (FIG. 2C) was identified. […] Inclusion of a RelA/p65 antibody blocking peptide in the assay abrogated the immunoprecipitation (FIG. 2D).
EMSA: Nuclear extracts were isolated using the method of Dignam et al (Dignam et al., 1983) with minor modifications. For each sample, 5×10^6 cells were used. Radiolabeling of the NF-κB probe and CK-1 probe, binding reactions, electrophoresis, and autoradiography were conducted as described previously (He et al., 2003).

TLR2-HeLa cells = experiment: MAP kinase phosphorylation and IκBα degradation in TLR2-HeLa cells (Western blotting); format: cell-based, human
Description: FIG. 8 is a series of protein gels and corresponding Western blotting graphs showing that SAA-induced TLR2-dependent signaling in transfected cells. Serum-starved TLR2-HeLa and mock-transfected HeLa cells were stimulated with SAA (1 μM) or Pam3CSK4 (1 μg/ml) for the indicated time. The phosphorylation level of ERK1/2 (A), p38 (B) and JNK (C) was detected by Western blotting using antibodies recognizing the phosphorylated forms of the MAP kinases (blots). (D) The level of cytoplasmic IκB ? was detected by Western blotting using an anti-IκB ? antibody and the β-actin levels in the corresponding samples were shown as loading controls. […] A representative set of data, from 3 repeating experiments, is presented.

TLR2:Fc fusion protein = target: T1, TLR2:Fc fusion protein (Homo sapiens, UniProt O60603); experiment: SAA-TLR2 interaction, ELISA-like binding assay; conditions: 0.0625 to 8 μg/ml ligand coated, 2 μg/ml TLR2:Fc
T1 construct: measured in an ELISA-like assay using a TLR2 extracellular domain:Fc fragment fusion protein; made in house; host or cells: CHO cells (pFuse-Fc vector, InvivoGen), purified from culture supernatant on protein A
T1 sequence (O60603 21-588 limits assumed): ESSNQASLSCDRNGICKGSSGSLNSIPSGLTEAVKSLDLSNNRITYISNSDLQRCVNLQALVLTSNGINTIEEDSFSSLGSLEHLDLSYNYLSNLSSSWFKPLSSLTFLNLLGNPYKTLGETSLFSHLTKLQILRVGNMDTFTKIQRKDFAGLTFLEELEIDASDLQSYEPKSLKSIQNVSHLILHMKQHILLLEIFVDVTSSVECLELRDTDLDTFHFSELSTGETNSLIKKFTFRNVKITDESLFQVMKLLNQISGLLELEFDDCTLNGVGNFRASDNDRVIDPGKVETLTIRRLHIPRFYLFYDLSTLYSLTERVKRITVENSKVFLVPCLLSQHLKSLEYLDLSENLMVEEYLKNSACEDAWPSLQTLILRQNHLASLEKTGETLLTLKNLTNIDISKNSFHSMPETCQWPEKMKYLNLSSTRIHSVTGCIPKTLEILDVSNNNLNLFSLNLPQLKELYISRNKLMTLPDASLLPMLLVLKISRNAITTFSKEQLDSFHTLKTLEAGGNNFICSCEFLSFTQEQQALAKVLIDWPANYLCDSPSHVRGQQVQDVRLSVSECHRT
Text: Another example of a method for screening antagonists that disrupt the SAA/TLR2 interaction involves a binding assay that includes a TLR2 ectodomain (extracellular domain) fused to an Fc fragment of immunoglobulin (TLR2:Fc), such as the assay used in FIG. 9B. This assay is typically used as a follow-up or secondary assay to that assay described above. In other words, any compounds collected from the assay described above are subjected to the TLR2:Fc-based binding assay to confirm that the antagonistic effect is on the disruption of SAA-TLR2 binding. This method is generally carried out as follows and is also described in the Examples. A TLR2:Fc fusion protein is generated such that the N-terminal 588 amino acids of human TLR2 are fused in frame to the Fc portion of mouse IgG2a. The cDNA encoding for the resulting chimeric protein is cloned in pFuse-Fc vector (InvivoGen), and stably transfected into CHO cells. […] Absorbance at 450 nm is measured on a SpectraMax 340 plate reader (Molecular Devices).
Assays for SAA-TLR2 interaction: The TL2:Fc fusion protein was generated such that the N-terminal 588 amino acids of human TLR2 protein were fused in frame with the Fc portion of mouse IgG2a. […] Absorbance at 450 nm was measured on a SpectraMax 340 plate reader (Molecular Devices). […]

B1: SAA: Recombinant human SAA purchased from PeproTech; major acute-phase protein of 104 amino acids (protein, UniProt P0DJI8 19-122, looked up)
Serum amyloid A-1 protein: RSFFSFLGEAFDGARDMWRAYSDMREANYIGSDKYFHARGNYDAAKRGPGGAWAAEVITDARENIQRFFGHGAEDSLADQAANEWGRSGKDPNHFRPAGLPEKY
Which results are given for B1?
formation of NF-κB•DNA complex (NF-κB): stimulated the formation of NF-κB•DNA complex; IκBα degradation (TLR2-HeLa cells; TLR2-HeLa cells, SAA 1 μM): IκBα degradation; phosphorylation of MAP kinases ERK1/2, p38 and JNK (TLR2-HeLa cells; TLR2-HeLa cells, SAA 1 μM): robust phosphorylation; ERK1/2 phosphorylation in mock-transfected cells (TLR2-HeLa cells; mock-transfected HeLa cells, 10 min, SAA 1 μM, Pam3CSK4 1 μg/ml): induced ERK1/2 phosphorylation; IκBα degradation in mock-transfected cells (TLR2-HeLa cells; mock-transfected HeLa cells, SAA stimulation): No IκBα degradation; binding to TLR2:Fc fusion protein (TLR2:Fc fusion protein): dose-dependent increase in SAA binding
